The values that follow come from FireProtDB (doi:10.1021/bi9928694).

Usually Tm stands for the temperature at which the thermal transition is half complete.

For this series the following is noted: Homo sapiens, reversible: yes, whole UniProt chain shown.
The mark [1] stands for this setting: pH 2.7, Thermal, DSC, glycine-HCl 0.05 M.
[2] abbreviates: pH 4, 10 °C, GdnHCl, CD, glycine-HCl 40 mM.

B1: Lysozyme C wild type, P61626 (protein)
chain: MKALIVLGLVLLSVTVQGKVFERCELARTLKRLGMDGYRGISLANWMCLAKWESGYNTRATNYNAGDRSTDYGIFQINSRYWCNDGKTPGAVNACHLSCSALLQDNIADAVACAKRVVRDPQGIRAWVAWRNRCQNRDVRQYVQGCGV
For B1, under setting [1], the Tm worked out at 64.9 °C, the “heat capacity change of unfolding” value turned out to be 1.58 kcal/mol/K and the “unfolding enthalpy (calorimetric)” value amounted to 114 kcal/mol. Further, under setting [2], the “denaturant midpoint (higher = more stable)” value came to 3.96 M and the unfolding free energy worked out at 14.3 kcal/mol.
